Experimental data as given in patent US20260250418A1 (BIOCYTOGEN PHARMACEUTICALS BEIJING, published 2026).

T1: monkey (Macaca fascicularis) HER3 on CHO-fasHER3 cells (monkey (Macaca fascicularis), UniProt P21860 20-643 (human entry))
T1 construct: CHO-S cells transfected with fasHER3
T1 chain: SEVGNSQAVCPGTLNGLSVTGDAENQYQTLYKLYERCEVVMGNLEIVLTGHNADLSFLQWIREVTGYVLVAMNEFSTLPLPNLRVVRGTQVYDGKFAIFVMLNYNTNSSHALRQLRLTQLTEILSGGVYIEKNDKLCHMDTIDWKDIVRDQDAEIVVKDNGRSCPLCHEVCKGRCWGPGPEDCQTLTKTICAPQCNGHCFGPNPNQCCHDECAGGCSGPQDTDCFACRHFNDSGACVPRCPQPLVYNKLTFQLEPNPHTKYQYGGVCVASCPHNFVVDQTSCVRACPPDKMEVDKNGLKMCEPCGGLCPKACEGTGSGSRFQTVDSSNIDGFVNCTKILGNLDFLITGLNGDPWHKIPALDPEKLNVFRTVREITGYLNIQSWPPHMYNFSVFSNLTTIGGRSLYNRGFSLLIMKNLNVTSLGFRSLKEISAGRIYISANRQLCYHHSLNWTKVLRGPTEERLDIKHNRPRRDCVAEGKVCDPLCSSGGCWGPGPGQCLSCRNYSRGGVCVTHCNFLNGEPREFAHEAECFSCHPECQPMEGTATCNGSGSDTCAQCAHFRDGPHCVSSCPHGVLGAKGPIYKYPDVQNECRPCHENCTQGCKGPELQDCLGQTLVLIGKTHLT

T2: dog HER3 on CHO-dHER3 cells (dog, UniProt P21860 20-1342 (human entry))
T2 construct: CHO-S cells transfected with dHER3
T2 chain: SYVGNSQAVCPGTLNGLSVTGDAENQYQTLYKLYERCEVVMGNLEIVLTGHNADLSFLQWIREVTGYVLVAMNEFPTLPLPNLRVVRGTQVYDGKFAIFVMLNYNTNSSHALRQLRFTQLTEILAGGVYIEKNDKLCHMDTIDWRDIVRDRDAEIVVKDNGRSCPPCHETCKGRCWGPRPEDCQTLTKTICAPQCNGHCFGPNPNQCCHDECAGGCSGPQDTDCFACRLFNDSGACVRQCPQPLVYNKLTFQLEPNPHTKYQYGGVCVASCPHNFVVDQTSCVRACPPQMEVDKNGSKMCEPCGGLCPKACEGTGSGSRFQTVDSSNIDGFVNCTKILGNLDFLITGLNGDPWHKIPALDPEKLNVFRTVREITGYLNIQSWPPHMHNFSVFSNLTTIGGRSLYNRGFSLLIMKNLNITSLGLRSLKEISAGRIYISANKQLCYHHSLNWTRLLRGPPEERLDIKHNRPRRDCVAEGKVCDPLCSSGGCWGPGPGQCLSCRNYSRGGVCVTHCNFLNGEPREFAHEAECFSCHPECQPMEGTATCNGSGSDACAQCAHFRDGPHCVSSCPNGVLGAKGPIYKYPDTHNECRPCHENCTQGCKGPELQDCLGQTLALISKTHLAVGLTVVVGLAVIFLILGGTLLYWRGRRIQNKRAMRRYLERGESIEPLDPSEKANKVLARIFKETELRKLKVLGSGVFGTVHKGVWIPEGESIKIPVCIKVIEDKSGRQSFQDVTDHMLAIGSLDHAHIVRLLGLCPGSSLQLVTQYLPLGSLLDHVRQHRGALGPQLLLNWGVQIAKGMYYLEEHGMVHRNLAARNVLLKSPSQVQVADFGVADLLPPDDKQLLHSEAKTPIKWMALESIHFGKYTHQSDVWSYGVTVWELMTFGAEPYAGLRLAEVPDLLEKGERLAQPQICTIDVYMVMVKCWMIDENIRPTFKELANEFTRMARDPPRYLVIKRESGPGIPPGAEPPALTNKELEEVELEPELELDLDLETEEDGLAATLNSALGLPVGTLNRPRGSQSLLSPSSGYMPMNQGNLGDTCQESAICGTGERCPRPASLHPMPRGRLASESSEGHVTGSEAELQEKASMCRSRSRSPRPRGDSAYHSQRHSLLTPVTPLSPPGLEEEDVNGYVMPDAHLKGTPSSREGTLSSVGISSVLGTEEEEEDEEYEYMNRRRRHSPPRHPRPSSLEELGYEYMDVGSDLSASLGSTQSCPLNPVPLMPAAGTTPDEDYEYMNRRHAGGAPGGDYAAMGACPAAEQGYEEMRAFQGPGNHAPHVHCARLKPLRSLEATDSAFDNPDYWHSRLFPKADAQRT


Columns and labels:
[1] = target: T3, human EGFR (hEGFR, ACRO Biosystems Inc., Cat #: EGR-H5222), recombinant His-tagged (human, UniProt P00533 25-645); experiment: SPR, Ab captured on Protein A
T3 construct: Bought protein; not shown: His tag
Experimental: (§1) The cross binding activities of anti-HER3 antibodies to HER family proteins were determined by surface plasmon resonance (SPR) using Biacore (Biacore, INC, Piscataway N.J.) 8K biosensor equipped with pre-immobilized Protein A sensor chips.
(§2) Purified anti-HER3 antibodies were diluted to 2 μg/mL and then injected into the Biacore 8K biosensor at 10 μL/min for about 50 seconds to achieve a desired protein density (e.g., about 200 response units (RU)). […] The association phase lasted for 180 s and the dissociation phase lasted 400 s followed by a regeneration step with Glycine (pH 2.0, 30 μL/min for 30 seconds). For isotype control (ISO), an antibody targeting an irrelevant target protein was used.

[2] = target: T4, human HER2 (hHER2, ACRO Biosystems Inc., Cat #: HE2-H5225), recombinant His-tagged (human, UniProt P04626 23-652); experiment: SPR, Ab captured on Protein A
T4 construct: Bought protein; not shown: His tag
Experimental: as §1, §2

[3] = target: T1, monkey (Macaca fascicularis) HER3 on …; experiment: flow cytometry, transfected CHO cells
Experimental: (§3) CHO-hHER3 cells, CHO-mHER3 cells, CHO-fasHER3 cells or CHO-dHER3 cells were transferred to a 96-well plate at a density of 5×10⁴ cells/well respectively. The anti-HER3 antibodies were added to the 96-well plate, and incubated at 4° C. for 30 min.

[4] = target: T5, mouse HER3 on CHO-mHER3 cells (mouse, UniProt Q61526 20-641); experiment: flow cytometry, transfected CHO cells
T5 construct: CHO-S cells transfected with mHER3
T5 sequence (Q61526 20-641): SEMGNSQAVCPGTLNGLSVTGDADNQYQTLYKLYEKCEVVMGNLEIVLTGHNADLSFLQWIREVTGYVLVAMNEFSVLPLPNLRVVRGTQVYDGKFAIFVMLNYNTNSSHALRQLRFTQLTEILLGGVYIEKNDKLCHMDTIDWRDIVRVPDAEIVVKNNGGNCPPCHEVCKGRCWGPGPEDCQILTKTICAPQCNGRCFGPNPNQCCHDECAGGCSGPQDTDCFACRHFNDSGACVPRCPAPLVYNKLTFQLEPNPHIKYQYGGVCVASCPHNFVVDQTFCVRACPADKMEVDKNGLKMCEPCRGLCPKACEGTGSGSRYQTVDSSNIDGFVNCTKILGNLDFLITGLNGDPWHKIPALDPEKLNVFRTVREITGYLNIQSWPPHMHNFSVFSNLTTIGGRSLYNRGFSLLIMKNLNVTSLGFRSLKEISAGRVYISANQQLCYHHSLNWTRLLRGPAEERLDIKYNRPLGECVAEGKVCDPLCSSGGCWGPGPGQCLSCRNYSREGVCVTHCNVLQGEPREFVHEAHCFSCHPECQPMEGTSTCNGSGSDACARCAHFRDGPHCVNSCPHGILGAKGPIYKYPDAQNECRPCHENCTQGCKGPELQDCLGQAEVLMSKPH
Experimental: as §3

[5] = target: T2, dog HER3 on CHO-dHER3 cells; experiment: flow cytometry, transfected CHO cells
Experimental: as §3

[6] = target: T6, human HER3 on CHO-hHER3 cells (human, UniProt P21860 20-643); experiment: flow cytometry, transfected CHO cells
T6 construct: CHO-S cells transfected with hHER3
Experimental: as §3

| binding result [1] | binding result [2] | Percentage of Positive Cells [3] [%] | Percentage of Positive Cells [4] [%] | Percentage of Positive Cells [5] [%] | Percentage of Positive Cells [6] [%] | binding result [4] | Binder |
| --- | --- | --- | --- | --- | --- | --- | --- |
| no binding (tested: 400 nM) | no binding (tested: 400 nM) | 65.6 | 15.2 | 29.8 | 66.5 |  | anti-HER3 antibody 3G6 (antibody, V domains shown, common light chain) VH: QVQLVQSGPVLVKPTETLTLTCTVSGFSLSNIRMGVSWIRQPPGKALEWLAHIFSNDDKSYSTSLKSRLTISKDTSKSQVVLTMTNVDPVDTATYYCTRMRYSGGPFDYWGQGTLVTVSS VL: not shown |
| no binding (tested: 400 nM) | no binding (tested: 400 nM) | 69 | 22.4 | 32.1 | 71.3 |  | anti-HER3 antibody 1B2 (antibody, V domains shown, common light chain) VH: QVQLVQSGPVLVKPTETLTLTCTVSTFSLSNARMGVSWIRQPPGKALEWLAHIFSNDDKSYSPSLKSRLTISKDTSKTQVVLTMTNMDPVDTATYYCSRMRYSGGPFDYWGQGSLVTVSS VL: not shown |
| no binding (tested: 400 nM) | no binding (tested: 400 nM) | 69.4 | 23 | 13.2 | 70.6 |  | anti-HER3 antibody 3E1 (antibody, V domains shown, common light chain) VH: EVQLVQSGPVLAKPTETLTLTCTVSGFSLSNIRMGVSWIRQPPGKALEWLAHIFSNDDKSYSPSLKNRLTISKDTSKSQVVLTMTTMDPMDTATYYCTRMKYSGGPFDYWGQGTLVTVSS VL: not shown |
| no binding (tested: 400 nM) | no binding (tested: 400 nM) | 72.8 | 3.4 | 33.1 | 74 | no binding | anti-HER3 antibody 1C5 (antibody, V domains shown, common light chain) VH: QVQLVESGGGVVQPGKSLRLSCAASGFTFSRSGMHWVRQAPGKGLEWVALISFDGSNKYYADSVKGRFTISRDNSKNTLNLQMNSLRAEDTAVYYCAKGGFGVVIYDAFDIWGHGTMVTVSS VL: not shown |
